Data from patent US20210062213A1 (UT BATTELLE, published 2021).

T1: cCFP-DGCR14/ESS2 (human DGCR14/ESS2 fused with the C-terminal fragment of CFP) (Homo sapiens, UniProt Q96DF8 1-476)
T1 construct: BiFC fusion transiently expressed in Arabidopsis leaf mesophyll protoplasts; also called Has DGCR14/ESS2; NM_022719; not shown: C-terminal fragment of CFP (cCFP) from vector pSATI-cCFP-C
T1 sequence: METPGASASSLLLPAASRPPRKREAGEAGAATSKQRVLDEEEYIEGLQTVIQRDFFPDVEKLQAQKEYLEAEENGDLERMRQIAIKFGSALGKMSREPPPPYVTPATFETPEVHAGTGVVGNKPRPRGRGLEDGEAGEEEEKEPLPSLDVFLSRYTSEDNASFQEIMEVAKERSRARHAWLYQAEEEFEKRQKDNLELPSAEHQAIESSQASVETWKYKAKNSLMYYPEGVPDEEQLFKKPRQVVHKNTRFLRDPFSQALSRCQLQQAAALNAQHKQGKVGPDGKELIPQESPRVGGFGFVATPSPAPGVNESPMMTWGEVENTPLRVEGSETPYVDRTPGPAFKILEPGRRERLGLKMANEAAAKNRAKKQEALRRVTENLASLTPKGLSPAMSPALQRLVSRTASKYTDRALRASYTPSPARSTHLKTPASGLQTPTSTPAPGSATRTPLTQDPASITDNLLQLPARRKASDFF

B1: nVenus-U2B (U2 SMALL NUCLEAR RIBONUCLEOPROTEIN B fused with the N-terminal fragment of Venus) (other, Arabidopsis, UniProt O22922 1-232, looked up)
chain: MLTADIPPNQSIYIQNLNERIKKEELKRSLYCLFSQFGRILDVVALKTPKLRGQAWVTFSEVTAAGHAVRQMQNFPFYDKPMRLQYAKAKSDCLAKAEGTFVPKDKKRKQEEKVERKREDSQRPNTANGPSANGPSANNGVPAPSFQPSGQETMPPNNILFIQNLPHETTSMMLQLLFEQYPGFKEIRMIDAKPGIAFVEYEDDVQASIAMQPLQGFKITPQNPMVISFAKK
notes: BiFC fusion transiently expressed in Arabidopsis protoplasts; also called AT2G30260; not shown: N-terminal fragment of Venus (nVenus) from vector pSATI-nVenus-C
B2: nVenus-U1-70 k (U1 SMALL NUCLEAR RIBONUCLEOPROTEIN-70K fused with the N-terminal fragment of Venus) (other, Arabidopsis, UniProt Q42404 1-427, looked up)
chain: MGDSGDPFLRNPNAAVQARAKVQNRANVLQLKLMGQSHPTGLTNNLLKLFEPRPPLEYKPPPEKRKCPPYTGMAQFVSNFAEPGDPEYAPPKPEVELPSQKRERIHKLRLEKGVEKAAEDLKKYDPNNDPNATGDPYKTLFVSRLNYESSESKIKREFESYGPIKRVHLVTDQLTNKPKGYAFIEYMHTRDMKAAYKQADGQKIDGRRVLVDVERGRTVPNWRPRRLGGGLGTSRVGGGEEIVGEQQPQGRTSQSEEPSRPREEREKSREKGKERERSRELSHEQPRERSRDRPREDKHHRDRDQGGRDRDRDSRRDRDRTRDRGDRDRRDRDRGRDRTSRDHDRDRSRKKERDYEGGEYEHEGGGRSRERDAEYRGEPEETRGYYEDDQGDTDRYSHRYDKMEEDDFRYEREYKRSKRSESREYVR
notes: BiFC fusion transiently expressed in Arabidopsis protoplasts; also called AT3G50670; not shown: N-terminal fragment of Venus (nVenus) from vector pSATI-nVenus-C
B3: cCFP-DGCR14l (Arabidopsis thaliana DGCR14-like fused with the C-terminal fragment of CFP) (other)
chain: MFLSPGHSPRQISSPSPSSYSDDTLRSTPRSSSSEIIPRNPRKRMRVLDEDAYVEAIEKIIERDYFPDITKLRDRLDWIQAVKTRDPIQIRDAQLKIIERRGKKANHHVGDTEGKTQTPGSTFLRNFTPLDEFDGKTPRTPGVSGREFHGVEVDAGDGDEDIDLNLSLDEFFRRYTSEDNESFSKILEKVNRKKKEKYGFLLEGEKEDGKSIEDVKRDRITDGYGTSDQPPSTLEGWKYTAKNLLMYHPADRGEAPLTEAERAVRLLGLTKEIVKGNTRFHGKTMDSRPREDGSVEILYTPIAGSSPMHISGRDRDKSKRYDLDDLRKTPNPFYVESDKRADNGYSFVRTPSPAPGLDESPFITWGEIDGTPMRLDLEDTPIDIGGSADGPHYNIPSAPPRDVRAHSLSRDASRKLRERSNSMFKKPPLPSPHRSGSASPNVRTLSPAAQKFFRKAIAKSSSTVDESLRASYRGASPRGASPGAVTPKSVRSISRFGKDGTSSETRSP
notes: BiFC fusion transiently expressed in Arabidopsis leaf mesophyll protoplasts; also called Ath DGCR14l; Arabidopsis DGCR14; not shown: C-terminal fragment of CFP (cCFP) from vector pSATI-cCFP-C

Legend:
Test in all cases: bimolecular fluorescence complementation (BiFC) in Arabidopsis protoplasts
[1] = biological target: T1, cCFP-DGCR14/ESS2 (human DGCR14/ESS2 …)
Protocol: (§1) Protoplast isolation and transfection were performed as previously described (Xie et al. (The Plant Cell 30, 1645-1660 (2018)). For subcellular localization, 8 μg of DGCR14l-YFP and DGCR14/ESS2-YFP constructs were co-transfected with 2 μg of the nuclear marker construct (mCherry-)VirD2NLS), respectively, into 100 μl of protoplasts (˜2×10⁴ cells) to determine their subcellular localizations. For colocalization, paired constructs (5 μg each) were co-transfected into 100 μl of protoplasts. For BiFC, paired genes were cloned into pSATI-nVenus-C (fuse with nVenus) and pSATI-cCFP-C (fuse with cCFP), respectively. Then their expression cassettes were cloned into pUC119 (pUC-RCS) vector using AscI for transient expression in protoplasts. The generated constructs (4 μl of nVenus construct and 4 μl of cCFP construct) were co-transfected with 2 μl of the nuclear marker construct (mCherry-VirD2NLS) into 100 μl of protoplasts. After 14 h incubation under weak light at room temperature, protoplasts were collected and resuspended in cold W5 solution (2 mM MES pH 5.7, 154 mM NaCl, 125 mM CaCl₂, and 5 mM KCl) to subject to microscopy. Images were collected using a Zeiss LSM 710 confocal microscope, equipped with 514 and 561 nm laser lines for excitation of YFP and mCherry, respectively. Images were processed using Zen software (Zeiss).
(§2) To further test the association of DGCR14l and DGCR14/ESS2 with spliceosome, a bimolecular fluorescence complementation (BiFC) assay was performed in Arabidopsis protoplasts. In this assay, DGCR14 orthologs and U1-70 k were fused with split YFP (C-terminal fragment of CFP (cCFP) and N-terminal of Venus (nVenus)), and co-expressed in protoplasts. The interaction between two proteins will bring cCFP and nVenus together to form a functional YFP, which then leads to fluorescence. […] In contrast, no YFP signal was detected from DGCR14l-U2B or DGCR14/ESS2-U2B interaction (FIG. 2C), further supporting DGCR14's selectivity on spliceosome components.

[2] = biological target: B2
Protocol: as §1, §2

[3] = biological target: B1
Protocol: as §1, §2

Row | binding result [1] | binding result [2] | binding result [3] | Binder
1 | no binding | – | – | B1
2 | binds | – | – | B2
3 | – | binds | no binding | B3
